How the values were obtained:
ephrin-B3 Fc = ephrin-B3 Fc (UniProt Q15768); test: ELISA; settings: Fc fusion
ephrin-A5 Fc [1] = biological target: ephrin-A5 Fc (UniProt P52803); test: ELISA; settings: Fc fusion
ephrin-A5 Fc [2] = biological target: ephrin-A5 Fc (UniProt P52803); test: SPR; settings: Fc fusion
ephrin-A5 Fc [3] = biological target: ephrin-A5 Fc (UniProt P52803); test: SPR; BIAcore T200; ephrin-A5 Fc amine-coupled on CM5 chip; EphA4 Fc proteins 500 to 50 nM in 10 mM HEPES pH 7.4, 150 mM NaCl, 3 mM EDTA, 0.05% Surfactant P20; 30 µl/min; bivalent analyte model and steady state affinity model
[4] = biological target: EphA4 Fc (wild type): human EphA4 ectodomain fused to IgG4 Fc (human) (UniProt P54764); test: AUC; sedimentation velocity, 10 mM potassium phosphate pH 7.6, 20 °C, 40,000 rpm, c(s) fit with SEDFIT; oligomeric state of the Fc fusion
[5] = biological target: triple mutant of EphA4 Fc (N235Q, N340Q, N408Q) (human) (UniProt P54764); test: as above

UniProt Q15768, sequence (Q15768 28-226): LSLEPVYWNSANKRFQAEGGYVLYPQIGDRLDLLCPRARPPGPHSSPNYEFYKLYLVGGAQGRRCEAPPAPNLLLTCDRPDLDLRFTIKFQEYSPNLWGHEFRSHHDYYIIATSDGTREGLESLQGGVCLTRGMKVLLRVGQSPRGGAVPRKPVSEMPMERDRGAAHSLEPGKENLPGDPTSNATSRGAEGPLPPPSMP

Kd (ephrin-B3 Fc) [nM]	Kd (ephrin-A5 Fc [1]) [nM]	Kd (ephrin-A5 Fc [2]) [nM]	ka1 (bivalent analyte model) (ephrin-A5 Fc [3]) [M⁻¹ s⁻¹]	ka2 (bivalent analyte model) (ephrin-A5 Fc [3]) [RU^-1s^-1]	kd1 (bivalent analyte model) (ephrin-A5 Fc [3]) [s⁻¹]	kd2 (bivalent analyte model) (ephrin-A5 Fc [3]) [s⁻¹]	stoichiometry N [4]	stoichiometry N [5]	Substance
23.9	0.51	318							EphA4 Fc (wild type): human EphA4 ectodomain fused to IgG4 Fc (from UniProt P54764-1 20-547)
			56300	0.000112	0.0224	0.00106	2		EphA4 Fc (wild type): human EphA4 ectodomain fused to IgG4 Fc (from UniProt P54764-1 20-547) (Fc fusion)
			115000	5.4e-05	0.0184	2.66e-06		2	triple mutant of EphA4 Fc (N235Q, N340Q, N408Q) (from UniProt P54764-1 20-547) (Fc fusion)

Source: PMC5529513
